Patent EP4806922A2 (Lyvgen Biopharma Holdings Limited, dated 2026)
Where two headings read alike, the source gives them in different places.

Columns and labels:
human CD137 protein = target: T1, human CD137 protein (human, UniProt Q07011 24-186); test: ELISA or FCM, graded summary
T1 construct: also called human CD137 expressing CHO cells

human CD3D/E protein [1] = target: T2, human CD3D/E protein (human, UniProt P04234 22-105; P07766 23-126); test: ELISA or FCM, graded summary
T2 construct: also called human CD3 expressing Jurkat cells
T2 sequence (P04234 22-105, chain 1 of 2): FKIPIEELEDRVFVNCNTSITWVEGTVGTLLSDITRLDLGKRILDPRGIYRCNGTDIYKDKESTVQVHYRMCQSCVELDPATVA
T2 sequence (P07766 23-126, chain 2 of 2): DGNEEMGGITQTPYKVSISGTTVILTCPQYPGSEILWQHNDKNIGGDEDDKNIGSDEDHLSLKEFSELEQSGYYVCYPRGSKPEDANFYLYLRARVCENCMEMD

human PD-L1 protein [2] = target: T3, human PD-L1 protein (human, UniProt Q9NZQ7 19-238); test: FCM or ELISA, graded summary
T3 sequence (Q9NZQ7 19-238 limits assumed): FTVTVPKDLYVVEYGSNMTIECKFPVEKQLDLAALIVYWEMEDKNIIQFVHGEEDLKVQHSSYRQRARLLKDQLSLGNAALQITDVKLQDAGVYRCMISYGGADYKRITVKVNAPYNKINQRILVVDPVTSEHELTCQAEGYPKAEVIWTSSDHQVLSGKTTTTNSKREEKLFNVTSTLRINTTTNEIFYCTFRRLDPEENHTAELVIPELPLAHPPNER

human CD3D/E protein [3] = target: T2, human CD3D/E protein; test: FCM or ELISA, graded summary
human BCMA protein = target: T4, human BCMA protein (human, UniProt Q02223 1-54); test: FCM or ELISA, graded summary
T4 construct: also called human BCMA expressing NCI-H929 cells; human BCMA overexpressing HEK293 cells
T4 sequence (looked up): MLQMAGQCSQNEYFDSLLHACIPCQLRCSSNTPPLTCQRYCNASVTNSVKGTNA

human PD-L1 protein [4] = target: T3, human PD-L1 protein; test: FCM or ELISA, graded summary; remark: listed apart in the source

T1 sequence (Q07011 24-186 limits assumed): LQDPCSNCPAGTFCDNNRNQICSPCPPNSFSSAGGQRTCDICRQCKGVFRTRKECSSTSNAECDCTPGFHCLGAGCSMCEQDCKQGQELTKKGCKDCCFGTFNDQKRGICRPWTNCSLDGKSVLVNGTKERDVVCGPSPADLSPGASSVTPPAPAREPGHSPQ

B1: Ly1630 (anti-CD137 parent) (antibody, V domains shown)
VH: QVQLVQSGAEVKKPGASVKVSCKASGYTFAGFEMHWVRQAPGQGLEWMGAIDPKTGGTDYNQKFKDRVTMTRDTSISTAYMELSRLRSDDTAVYYCARDLGYFDVWGQGTLVTVSS
VL: DIQMTQSPSSLSASVGDRVTITCRASQDIRSNLNWYQQKPGGAVKLLIYYTSRLHSGVPSRFSGSGSGTDYTLTISSLQPEDFATYFCQQSEKLPRTFGGGTKVEIR
notes: Parent monoclonal antibody used as control; also called anti-CD137 mAb Ly1630
B1: binds (human CD137 protein).

B2: Ly305 (anti-CD3 parent) (antibody, V domains shown)
VH: EVQLVESGGGLVQPGGSLRLSCAASGFTFSTYAMNWVRQAPGKGLEWVGRIRSKYNNYATYYADSVKGRFTISRDDSKNSLYLQMNSLKTEDTAVYYCVRHGNFGNSYVSWFAYWGQGTLVTVSS
VL: QAVVTQEPSLTVSPGGTVTLTCRSSTGAVTTSNYANWVQQKPGQAPRGLIGGTNKRAPWTPARFSGSLLGGKAALTITGAQAEDEADYYCALWYSNLWVFGGGTKLTVL
notes: Parent monoclonal antibody used as control; also called anti-CD3 mAb Ly305; parental anti-CD3 mAb
B2: binds (human CD3D/E protein [1]).

B3: Ly076 (anti-PD-L1 parent) (antibody, V domains shown)
VH: QVQLVQSGAEVKKPGASVKVSCKASGYTFTDFWMSWVRQAPGQGLEWMGQIYPNTGTTHSNEKFKGRVTMTRDTSTSTVYMELSSLRSEDTAVYYCARSYHISTTPNWFAYWGQGTLVTVSS
VL: DIQMTQSPSSLSASVGDRVTITCKASQNVYKKLEWYQQKPGKVPKVLIYHTNILQTGVPSRFSGSGSGTDYTLTISSLQPEDVATYYCYQWNSGPTFGGGTKVEIK
notes: Parent monoclonal antibody used as control; also called anti-PD-L1 mAb Ly076
B3: binds (human PD-L1 protein [2]).

B4: Ly2959 (BCMA/CD3/PD-L1) (other)
heavy 1: QVQLVQSGAEVKKPGASVKVSCKASGYTFTNHIIHWVRQAPGQGLEWMGYINPYPGYHAYNEKFQGRATMTSDTSTSTVYMELSSLRSEDTAVYYCARDGYYRDTDVLDYWGQGTLVTVSSASTKGPSVFPLAPSSKSTSGGTAALGCLVKDYFPEPVTVSWNSGALTSGVHTFPAVLQSSGLYSLSSVVTVPSSSLGTQTYICNVNHKPSNTKVDKKVEPKSCGGGGSGGGGSGGGGSGGGGSEVQLVESGGGLVQPGGSLRLSCAASGFTFSTYAMNWVRQAPGKGLEWVGRIRSKYNNYATYYADSVKGRFTISRDDSKNSLYLQMNSLKTEDTAVYYCVRHGNFGNSYVSWFAYWGQGTLVTVSSGGGGSDKTHTCPPCPAPELLGPSVFLFPPKPKDTLMISRTPEVTCVVVDVSHEDPEVKFNWYVDGVEVHNAKTKPREEQYNSTYRVVSVLTVLHQDWLNGKEYKCKVSNKALGAPIEKTISKAKGQPREPQVYTLPPSREEMTKNQVSLWCLVKGFYPSDIAVEWESNGQPENNYKTTPPVLDSDGSFFLYSKLTVDKSRWQQGNVFSCSVMHEALHNHYTQKSLSLSPGKGGGGSGGGGSGGGGSGGGGSQVQLVQSGAEVKKPGASVKVSCKASGYTFTDFWMSWVRQAPGQGLEWMGQIYPNTGTTHSNEKFKGRVTMTRDTSTSTVYMELSSLRSEDTAVYYCARSYHISTTPNWFAYWGQGTLVTVSS
heavy 2: QVQLVQSGAEVKKPGASVKVSCKASGYTFTNHIIHWVRQAPGQGLEWMGYINPYPGYHAYNEKFQGRATMTSDTSTSTVYMELSSLRSEDTAVYYCARDGYYRDTDVLDYWGQGTLVTVSSASTKGPSVFPLAPSSKSTSGGTAALGCLVKDYFPEPVTVSWNSGALTSGVHTFPAVLQSSGLYSLSSVVTVPSSSLGTQTYICNVNHKPSNTKVDKKVEPKSCGGGGSGGGGSGGGGSGGGGSQAVVTQEPSLTVSPGGTVTLTCRSSTGAVTTSNYANWVQQKPGQAPRGLIGGTNKRAPWTPARFSGSLLGGKAALTITGAQAEDEADYYCALWYSNLWVFGGGTKLTVLGGGGSDKTHTCPPCPAPELLGPSVFLFPPKPKDTLMISRTPEVTCVVVDVSHEDPEVKFNWYVDGVEVHNAKTKPREEQYNSTYRVVSVLTVLHQDWLNGKEYKCKVSNKALGAPIEKTISKAKGQPREPQVYTLPPSREEMTKNQVSLSCAVKGFYPSDIAVEWESNGQPENNYKTTPPVLDSDGSFFLVSKLTVDKSRWQQGNVFSCSVMHEALHNRFTQKSLSLSPGKGGGGSGGGGSGGGGSGGGGSDIQMTQSPSSLSASVGDRVTITCKASQNVYKKLEWYQQKPGKVPKVLIYHTNILQTGVPSRFSGSGSGTDYTLTISSLQPEDVATYYCYQWNSGPTFGGGTKVEIK
light: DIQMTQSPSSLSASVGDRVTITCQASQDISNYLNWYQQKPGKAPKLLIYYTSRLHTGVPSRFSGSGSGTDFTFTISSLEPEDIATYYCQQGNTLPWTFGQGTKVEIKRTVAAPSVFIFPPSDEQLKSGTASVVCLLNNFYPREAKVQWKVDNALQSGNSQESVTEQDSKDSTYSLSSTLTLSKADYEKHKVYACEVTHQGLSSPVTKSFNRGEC
notes: Multi-specific (tri-specific) antibody with three different chains HC1, HC2, LC1; also called BCMA(a) /CD3 /PD-L1
B4: binds (human CD3D/E protein [3]); binds (human BCMA protein); binds (human PD-L1 protein [4]).
